Key:
Experiment in all cases: flow cytometry, alanine scan
[1] = biological target: human CD33 Q364A (human, UniProt P20138 18-363)
[2] = biological target: human CD33 N349A (human, UniProt P20138 18-364)
[3] = biological target: human CD33 P330A (human, UniProt P20138 18-364)
[4] = biological target: human CD33 T331A (human, UniProt P20138 18-364)
[5] = biological target: human CD33 E360A (human, UniProt P20138 18-364)
[6] = biological target: human CD33 S326A (human, UniProt P20138 18-364)
[7] = biological target: human CD33 E321A (human, UniProt P20138 18-364)
Sequence of human CD33 E321A (P20138 18-364 E321A limits assumed): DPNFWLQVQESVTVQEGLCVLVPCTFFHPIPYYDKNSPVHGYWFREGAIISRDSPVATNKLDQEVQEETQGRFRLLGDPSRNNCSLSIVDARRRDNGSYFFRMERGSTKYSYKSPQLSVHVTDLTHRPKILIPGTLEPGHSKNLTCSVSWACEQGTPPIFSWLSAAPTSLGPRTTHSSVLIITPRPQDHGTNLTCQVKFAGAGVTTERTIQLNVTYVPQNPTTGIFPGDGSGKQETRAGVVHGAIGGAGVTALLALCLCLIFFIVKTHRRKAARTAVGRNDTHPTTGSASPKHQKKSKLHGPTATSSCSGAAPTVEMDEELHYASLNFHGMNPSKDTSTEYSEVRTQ

[8] = biological target: human CD33 L338A (human, UniProt P20138 18-364)
Sequence of human CD33 L338A (P20138 18-364 L338A limits assumed): as the sequence (P20138 18-364 E321A limits assumed) above, with A304E, L321A counted along it

[9] = biological target: human CD33 C325A (human, UniProt P20138 18-364)
[10] = biological target: human CD33 S355A (human, UniProt P20138 18-364)
[11] = biological target: human CD33 M348A (human, UniProt P20138 18-364)
[12] = biological target: human CD33 S342A (human, UniProt P20138 18-364)
[13] = biological target: human CD33 S323A (human, UniProt P20138 18-364)
[14] = biological target: human CD33 H339A (human, UniProt P20138 18-364)
[15] = biological target: human CD33 D335A (human, UniProt P20138 18-364)
[16] = biological target: human CD33 V361A (human, UniProt P20138 18-364)
[17] = biological target: human CD33 S324A (human, UniProt P20138 18-364)
[18] = biological target: human CD33 T320A (human, UniProt P20138 18-364)
[19] = biological target: human CD33 G318A (human, UniProt P20138 18-364)
[20] = biological target: human CD33 Y358A (human, UniProt P20138 18-364)
Sequence of human CD33 Y358A (P20138 18-364 Y358A limits assumed): as the sequence (P20138 18-364 E321A limits assumed) above, with A304E, Y341A counted along it

[21] = biological target: human CD33 E337A (human, UniProt P20138 18-364)
Sequence of human CD33 E337A (P20138 18-364 E337A limits assumed): as the sequence (P20138 18-364 E321A limits assumed) above, with A304E, E320A counted along it

[22] = biological target: human CD33 E336A (human, UniProt P20138 18-364)
[23] = biological target: human CD33 H346A (human, UniProt P20138 18-364)
Sequence of human CD33 H346A (P20138 18-364 H346A limits assumed): as the sequence (P20138 18-364 E321A limits assumed) above, with A304E, H329A counted along it

[24] = biological target: human CD33 R362A (human, UniProt P20138 18-364)
Sequence of human CD33 R362A (P20138 18-364 R362A limits assumed): as the sequence (P20138 18-364 E321A limits assumed) above, with A304E, R345A counted along it

[25] = biological target: human CD33 T354A (human, UniProt P20138 18-364)
[26] = biological target: human CD33 G347A (human, UniProt P20138 18-364)
[27] = biological target: human CD33 T363A (human, UniProt P20138 18-364)
Sequence of human CD33 T363A (P20138 18-364 T363A limits assumed): as the sequence (P20138 18-364 E321A limits assumed) above, with A304E, T346A counted along it

[28] = biological target: human CD33 P319A (human, UniProt P20138 18-364)
Sequence of human CD33 P319A (P20138 18-364 P319A limits assumed): as the sequence (P20138 18-364 E321A limits assumed) above, with P302A, A304E counted along it

[29] = biological target: human CD33 G327A (human, UniProt P20138 18-364)
Sequence of human CD33 G327A (P20138 18-364 G327A limits assumed): as the sequence (P20138 18-364 E321A limits assumed) above, with A304E, G310A counted along it

[30] = biological target: human CD33 P350A (human, UniProt P20138 18-364)
[31] = biological target: human CD33 E357A (human, UniProt P20138 18-364)
[32] = biological target: human CD33 K352A (human, UniProt P20138 18-364)
Sequence of human CD33 K352A (P20138 18-364 K352A limits assumed): as the sequence (P20138 18-364 E321A limits assumed) above, with A304E, K335A counted along it

[33] = biological target: human CD33 S351A (human, UniProt P20138 18-364)
[34] = biological target: human CD33 L343A (human, UniProt P20138 18-364)
[35] = biological target: human CD33 F345A (human, UniProt P20138 18-364)
[36] = biological target: human CD33 A341S (human, UniProt P20138 18-364)
[37] = biological target: human CD33 Y340A (human, UniProt P20138 18-364)
[38] = biological target: human CD33 T356A (human, UniProt P20138 18-364)
Sequence of human CD33 T356A (P20138 18-364 T356A limits assumed): as the sequence (P20138 18-364 E321A limits assumed) above, with A304E, T339A counted along it

[39] = biological target: human CD33 V332A (human, UniProt P20138 18-364)
[40] = biological target: human CD33 S359A (human, UniProt P20138 18-364)
Sequence of human CD33 S359A (P20138 18-364 S359A limits assumed): as the sequence (P20138 18-364 E321A limits assumed) above, with A304E, S342A counted along it

[41] = biological target: human CD33 M334A (human, UniProt P20138 18-364)
[42] = biological target: human CD33 E333A (human, UniProt P20138 18-364)
[43] = biological target: human CD33 A328S (human, UniProt P20138 18-364)
[44] = biological target: human CD33 A329S (human, UniProt P20138 18-364)
[45] = biological target: human CD33 N344A (human, UniProt P20138 18-364)
[46] = biological target: human CD33 D353A (human, UniProt P20138 18-364)
[47] = biological target: human CD33 T322A (human, UniProt P20138 18-364)
Sequence of human CD33 T322A (P20138 18-364 T322A limits assumed): as the sequence (P20138 18-364 E321A limits assumed) above, with A304E, T305A counted along it

Sequence of human CD33 N349A (P20138 18-364 N349A limits assumed): as the sequence (P20138 18-364 E321A limits assumed) above, with A304E, N332A counted along it

B1: Refmab #1 (antibody, V domains shown)
VH: EVQLVQSGAEVKKPGSSVKVSCKASGYTITDSNIHWVRQAPGQSLEWIGYIYPYNGGTDYNQKFKNRATLTVDNPTNTAYMELSSLRSEDTAFYYCVNGNPWLAYWGQGTLVTVSS
VL: DIQLTQSPSTLSASVGDRVTITCRASESLDNYGIRFLTWFQQKPGKAPKLLMYAASNQGSGVPSRFSGSGSGTEFTLTISSLQPDDFATYYCQQTKEVPWSFGQGTKVEVK
notes: The alanine scan used IgG or Fab; also called hP67.6
For B1, which “Mean % WT Binding” value [1] is on record?
Its value is 72 % of WT.

What about the “Mean % WT Binding” value [2] of the same binder?
Its value is 92.3 % of WT.

And the “Mean % WT Binding” value [3]?
Its value is 98.6 % of WT.

What about the “Mean % WT Binding” value [4] of the same binder?
The value was 87.4 % of WT.

And the “Mean % WT Binding” value [5]?
Its value is 73.7 % of WT.

And the “Mean % WT Binding” value [6]?
The value was 85.6 % of WT.

What about the “Mean % WT Binding” value [7] of the same binder?
Its value is 88.3 % of WT.

And the “Mean % WT Binding” value [8]?
Its value is 83.1 % of WT.

And the “Mean % WT Binding” value [9]?
The value was 80.1 % of WT.

What about the “Mean % WT Binding” value [10] of the same binder?
Its value is 86.1 % of WT.

What about the “Mean % WT Binding” value [11] of the same binder?
The value was 83.3 % of WT.

And the “Mean % WT Binding” value [12]?
The value was 79.5 % of WT.

And the “Mean % WT Binding” value [13]?
Its value is 95.2 % of WT.

And the “Mean % WT Binding” value [14]?
Its value is 76.7 % of WT.

And the “Mean % WT Binding” value [15]?
Its value is 77.8 % of WT.

What about the “Mean % WT Binding” value [16] of the same binder?
Its value is 88.8 % of WT.

What about the “Mean % WT Binding” value [17] of the same binder?
Its value is 97.8 % of WT.

What about the “Mean % WT Binding” value [18] of the same binder?
Its value is 98.5 % of WT.

What about the “Mean % WT Binding” value [19] of the same binder?
Its value is 98.5 % of WT.

What about the “Mean % WT Binding” value [20] of the same binder?
The value was 76.1 % of WT.

What about the “Mean % WT Binding” value [21] of the same binder?
Its value is 91.1 % of WT.

What about the “Mean % WT Binding” value [22] of the same binder?
Its value is 82.8 % of WT.

And the “Mean % WT Binding” value [23]?
Its value is 81.8 % of WT.

And the “Mean % WT Binding” value [24]?
The value was 104 % of WT.

And the “Mean % WT Binding” value [25]?
Its value is 91.8 % of WT.

And the “Mean % WT Binding” value [26]?
The value was 85.1 % of WT.

And the “Mean % WT Binding” value [27]?
Its value is 91.4 % of WT.

What about the “Mean % WT Binding” value [28] of the same binder?
The value was 83.9 % of WT.

What about the “Mean % WT Binding” value [29] of the same binder?
The value was 88 % of WT.

And the “Mean % WT Binding” value [30]?
Its value is 99 % of WT.

And the “Mean % WT Binding” value [31]?
Its value is 98.7 % of WT.

And the “Mean % WT Binding” value [32]?
The value was 95.3 % of WT.

What about the “Mean % WT Binding” value [33] of the same binder?
The value was 102 % of WT.

And the “Mean % WT Binding” value [34]?
Its value is 88.5 % of WT.

And the “Mean % WT Binding” value [35]?
Its value is 97.8 % of WT.

What about the “Mean % WT Binding” value [36] of the same binder?
The value was 86.8 % of WT.

And the “Mean % WT Binding” value [37]?
The value was 91.1 % of WT.

What about the “Mean % WT Binding” value [38] of the same binder?
The value was 93.5 % of WT.

And the “Mean % WT Binding” value [39]?
Its value is 107 % of WT.

And the “Mean % WT Binding” value [40]?
Its value is 95.8 % of WT.

And the “Mean % WT Binding” value [41]?
The value was 94.6 % of WT.

And the “Mean % WT Binding” value [42]?
The value was 77.9 % of WT.

What about the “Mean % WT Binding” value [43] of the same binder?
Its value is 86.5 % of WT.

And the “Mean % WT Binding” value [44]?
Its value is 88.1 % of WT.

What about the “Mean % WT Binding” value [45] of the same binder?
The value was 72.1 % of WT.

What about the “Mean % WT Binding” value [46] of the same binder?
The value was 94.7 % of WT.

What about the “Mean % WT Binding” value [47] of the same binder?
The value was 104 % of WT.

Source: patent US20260242735A1 (UNIVERSIT T BASEL, published 2026)
